Tests used:
[1] = molecular target: TIRC7 (human (endogenous in PBL)) (UniProt Q13488)
[2] = molecular target: TIRC7 (human (endogenous in PBL)) (UniProt Q13488); remark: listed apart in the source

Sequence of UniProt Q13488 (Q13488 217-830): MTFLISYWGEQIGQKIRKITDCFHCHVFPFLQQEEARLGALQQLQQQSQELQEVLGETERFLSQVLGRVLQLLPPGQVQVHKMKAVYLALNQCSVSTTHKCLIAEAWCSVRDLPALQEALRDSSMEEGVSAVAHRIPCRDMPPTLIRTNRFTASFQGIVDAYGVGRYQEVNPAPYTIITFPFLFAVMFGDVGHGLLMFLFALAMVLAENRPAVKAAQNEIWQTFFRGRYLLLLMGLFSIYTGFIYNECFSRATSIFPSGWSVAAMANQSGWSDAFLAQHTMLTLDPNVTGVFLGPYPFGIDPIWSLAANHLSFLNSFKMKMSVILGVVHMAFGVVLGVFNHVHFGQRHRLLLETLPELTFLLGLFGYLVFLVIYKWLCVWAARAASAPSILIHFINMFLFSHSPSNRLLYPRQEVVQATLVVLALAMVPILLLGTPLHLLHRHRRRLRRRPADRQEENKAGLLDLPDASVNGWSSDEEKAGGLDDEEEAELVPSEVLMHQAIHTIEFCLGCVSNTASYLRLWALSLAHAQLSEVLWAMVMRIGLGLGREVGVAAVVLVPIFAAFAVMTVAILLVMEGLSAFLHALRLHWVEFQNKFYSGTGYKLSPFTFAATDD

apoptosis (Annexin V) of human CD4+ cells stimulated 72 h with anti-CD3/CD28, sHLA-DRα2 50 µg/ml [1]: 51% | apoptosis (Annexin V) of human CD8+ cells stimulated 72 h with anti-CD3/CD28, sHLA-DRα2 50 µg/ml [1]: 54% | cells in G0/G1 cell cycle phase, human PBL activated with anti-CD3/CD28 48 h with sHLA-DRα2 50 µg/ml (propidium iodine, flow cytometry) [2]: 89% | subdiploid (apoptotic) cells 72 h after incubation of activated human PBL with sHLA-DRα2 [2]: 46.4%
Substance: soluble HLA-DR alpha 2 fusion protein (entire human HLA-DR alpha 2 domain linked to an IgG1 Fc protein) (Fc fusion)
